Measurements reported in patent US8632989B1, “Mutant insulin degrading enzyme and methods of use” (University of Kentucky Research Foundation, priority 2011, dated 2014).

Assays:
[1] = Fluorescence measurements of TNP-ATP binding, wild type rIDE and distal site mutants; conditions: hyperbolic one site binding fit, 20 °C
Description: The fluorescence increase on binding of (2,4,6-trinitrophenyl)ATP (TNP-ATP) is plotted for the indicated IDE constructs as a function of ligand concentration. Data were fit to a hyperbolic one site binding mechanism.
Fluorescence emission spectra of 10 μM TNP-ATP in […] Tris-HCl, pH7.4, was measured in the presence of 1.5 μM of each wild type IDE and the indicated IDE distal mutants. Fluorescence spectra were recorded with a λexc=403 nm on a Perkin-Elmer LS55 Luminescence Spectrometer.
Fluorescence measurements of TNP-ATP binding were performed on a Perkin-Elmer LS55 Luminescence Spectrometer. Titrations were monitored at an excitation wavelength of 403 nm and emission wavelength of 547 nm. The temperature of the sample was maintained at 20±0.1° C. by circulating thermostatically controlled water through the cuvette holder. Assays were conducted in 200 μL reaction mixtures containing 50 mM Tris-HCl, pH, 7.4, 10 μM Abz-[…]-EDDnp (SEQ ID NO:3) as substrate, and 0.5 μg wild type rIDE, 2.3 μg rIDE-V3605, 2.0 μg rIDE-I3745 or 1.62 μg rIDEY609F and the indicated concentration of ATP. The fluorescence of TNP-ATP was subtracted from the total fluorescence of enzyme+TNP-ATP to yield specific fluorescence enhancement (ΔF).

Abz-GGFLRKHGQ-EDDnp = target: T1, Abz-GGFLRKHGQ-EDDnp (Rattus norvegicus, UniProt P35559); conditions: reference [15]; cited from earlier work
T1 construct: begin at methionine 42, which is believed to be the in vivo start site, and extend through the native C-terminal residue leucine 1019; hexahistidine with linker holding a TEV protease site (N, cleaved yes); made in house; host or cells: SF9 insect cells (baculovirus, pFastBac HTb)
T1 sequence (P35559 42-1019): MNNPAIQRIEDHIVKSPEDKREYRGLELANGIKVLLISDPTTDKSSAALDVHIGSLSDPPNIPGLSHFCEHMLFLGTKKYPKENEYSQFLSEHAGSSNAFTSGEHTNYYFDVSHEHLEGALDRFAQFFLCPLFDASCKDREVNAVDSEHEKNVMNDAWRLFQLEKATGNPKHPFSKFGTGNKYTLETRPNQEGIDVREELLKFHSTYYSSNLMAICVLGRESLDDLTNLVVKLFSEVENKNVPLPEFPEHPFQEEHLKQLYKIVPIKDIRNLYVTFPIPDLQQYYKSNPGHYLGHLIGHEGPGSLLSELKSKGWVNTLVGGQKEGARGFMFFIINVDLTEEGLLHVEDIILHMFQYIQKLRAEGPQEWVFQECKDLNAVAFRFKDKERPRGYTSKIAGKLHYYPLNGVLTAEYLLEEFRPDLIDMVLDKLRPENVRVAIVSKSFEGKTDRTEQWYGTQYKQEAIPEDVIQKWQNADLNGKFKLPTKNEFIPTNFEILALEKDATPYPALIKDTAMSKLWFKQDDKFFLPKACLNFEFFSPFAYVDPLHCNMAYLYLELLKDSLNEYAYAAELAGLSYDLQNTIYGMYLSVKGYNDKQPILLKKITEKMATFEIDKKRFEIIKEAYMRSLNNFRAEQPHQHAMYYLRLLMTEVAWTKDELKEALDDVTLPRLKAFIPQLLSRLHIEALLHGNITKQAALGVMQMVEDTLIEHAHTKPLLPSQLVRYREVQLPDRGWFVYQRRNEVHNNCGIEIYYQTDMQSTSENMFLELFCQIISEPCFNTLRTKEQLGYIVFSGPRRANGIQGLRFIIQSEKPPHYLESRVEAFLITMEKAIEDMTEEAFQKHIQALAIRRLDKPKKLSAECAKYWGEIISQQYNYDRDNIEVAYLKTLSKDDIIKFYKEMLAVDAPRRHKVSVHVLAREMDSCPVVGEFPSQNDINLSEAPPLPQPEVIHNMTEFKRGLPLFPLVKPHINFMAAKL

B1: IDE: Native rat insulin degrading enzyme (SEQ ID NO:1), expressed as hexahistidine fusion protein in Sf9 insect cells (protein, listed as Rattus norvegicus)
chain: MRNGLVWLLHPALPSTLHSILGARPPPVKRLCGFPKQIYSTMNNPAIQRIEDHIVKSPEDKREYRGLELANGIKVLLISDPTTDKSSAALDVHIGSLSDPPNIPGLSHFCEHMLFLGTKKYPKENEYSQFLSEHAGSSNAFTSGEHTNYYFDVSHEHLEGALDRFAQFFLCPLFDASCKDREVNAVDSEHEKNVMNDAWRLFQLEKATGNPKHPFSKFGTGNKYTLETRPNQEGIDVREELLKFHSTYYSSNLMAICVLGRESLDDLTNLVVKLFSEVENKNVPLPEFPEHPFQEEHLKQLYKIVPIKDIRNLYVTFPIPDLQQYYKSNPGHYLGHLIGHEGPGSLLSELKSKGWVNTLVGGQKEGARGFMFFIINVDLTEEGLLHVEDIILHMFQYIQKLRAEGPQEWVFQECKDLNAVAFRFKDKERPRGYTSKIAGKLHYYPLNGVLTAEYLLEEFRPDLIDMVLDKLRPENVRVAIVSKSFEGKTDRTEQWYGTQYKQEAIPEDVIQKWQNADLNGKFKLPTKNEFIPTNFEILALEKDATPYPALIKDTAMSKLWFKQDDKFFLPKACLNFEFFSPFAYVDPLHCNMAYLYLELLKDSLNEYAYAAELAGLSYDLQNTIYGMYLSVKGYNDKQPILLKKITEKMATFEIDKKRFEIIKEAYMRSLNNFRAEQPHQHAMYYLRLLMTEVAWTKDELKEALDDVTLPRLKAFIPQLLSRLHIEALLHGNITKQAALGVMQMVEDTLIEHAHTKPLLPSQLVRYREVQLPDRGWFVYQRRNEVHNNCGIEIYYQTDMQSTSENMFLELFCQIISEPCFNTLRTKEQLGYIVFSGPRRANGIQGLRFIIQSEKPPHYLESRVEAFLITMEKAIEDMTEEAFQKHIQALAIRRLDKPKKLSAECAKYWGEIISQQYNYDRDNIEVAYLKTLSKDDIIKFYKEMLAVDAPRRHKVSVHVLAREMDSCPVVGEFPSQNDINLSEAPPLPQPEVIHNMTEFKRGLPLFPLVKPHINFMAAKL
modifications: hexahistidine tag; wild-type Insulin Degrading Enzyme (IDE) from rat
In the case of B1, the Kd [1] is given as 1000 ± 100 nM and the “increase of cleavage rate of Abz-GGFLRKHGQ-EDDnp by ATP” value (Abz-GGFLRKHGQ-EDDnp) is given as “more than 40 fold”.
